Experiment: soluble on expression in E. coli; label from the status in PepcDB or PDB records

Sequence | soluble on expression in E. coli
MSLEEILIIDDSRQIADFLAETVLPYYGYRSRVVPTGWEGLAFLKQRQPDLILLDLQLPDTSGLDVLRQMGELGYDIPVILMTAHGTEQTAVEAFRLGAKNYLIKPFDASEAGAAIERALRERRLQREKEVLTRTLQQRLQELTILSSVGKSVTSLLDLEELLERIVDAGVYLTHAEEGYLLLRDGDELYLRAAKNLGEERVQRFRVKMDDNVAGQVIRTVKPIRLDRSQHQDLKLRTGLLVQAMLQVPLIVGRHAIGVLAVDNRVQQRTFSENDQYLLSAIADYAAIAIENSREGHHHHHH | soluble
MGSDKIHHHHHHMRSITTNYSDDGYNFAFLDEQTKRMVRRTLLKALSIPGYQVPFGGREMPLASGWGTGGIQITASVLGPNDRLKVIDQGADDTTNAVSIRRFFQTVADISVTESTEEATIIQTRHRVPEAPLTEGQILVYQVPEPEPLRKLIPRESETRKMHAYAEYGAMQVTLYENIARFGRIAKTYDYPAMINGRFLMSPSPIPKFDNPKMANNPAIQFWGAGREKRIYAVPPYTSVRSLDFDDHPFEVQTWQGCCALCGSTVSYLDEVITDDKGSRMFVCSDTDFCNTRQAQAAAQPNSAGGES | not soluble
MAQRGRKPKPTALKILEGNPGKRPLNEDEPKPEKKAPKCPGWLDAEAKKEWRRMSKQLEAMGILTEIDMAAFAGYCQAYARWKEAEEFITKHGTIVKTPSGYWQQVPQVSIAQTYLKIMNRFCEQFGLTPSARSRIVTDNINDEEDPMELILYKGGSKSV | soluble
MSLGECPEYGKVKWIGNIYCHKYDEATTTLLSISTGTQSLGQDLKQRQAQLSIAKLTALAAEVQDLEKLNEIQTELDLIDGQILLSQELQESTLNPLFKDFTTYRTLFKYLSDAVKRRESLSVPHMIELFTLLNQDTSYGFALSILAIDHTLPTEVKKYCEYQIWRRCLLSDENAVRQTLRVFFKQQFYHQSIELPIIDNLANEKLITDSYLDGMYHGLTDLNKLASDVKREVALFANSNLDVTMLQSIIGEINEETGNQCVINYATNTIETSPTSEGHHHHHH | soluble
MDNHGILESLLFTAGDEGLDEKQLLEILDMSKDQLVELIENYSSHGLMIQRFGMTYVLTTKKEAATYIEQLIEQKSQMKLSQAAMEVLSIIAYNQPLSRSDIELIRSINSDGAVKTLIAKGLVEAKVVNEQRSQQLITTDLFLNVFGISNIEDLPTTEEDDEEMDAFFSNLVNQKGENND | not soluble
MHHHHHHSSGRENLYFQGMWDQRLVRLALLQHLRAFYGIKVKGVRGQCDRRRHETAATEIGGKIFGVPFNALPHSAVPEYGHIPSFLVDACTSLEDHIHTEGLFRKSGSVIRLKALKNKVDHGEGCLSSAPPCDIAGLLKQFFRELPEPILPADLHEALLKAQQLGTEEKNKATLLLSCLLADHTVHVLRYFFNFLRNVSLRSSENKMDSSNLAVIFAPNLLQTSEGHEKMSSNTEKKLRLQAAVVQTLIDYASDIGRVPDFILEKIPAML | soluble
MSLTRSTRNSIEFKVWGRHALFTDPLTKVGGEKCSYHVPTYEALKGIAKSIYWKPTLIWVIDEVRVMKRVRTQTKGTKPLEFGGGNSLAIYTFLADVEYQVRAHFEWNEHRPELQADRIDGKHYAIARRMLERGGRQDIFLGTRDCQGYIEPCEFGGGAGAHDEGSELAFGLMFHGFDYPDETGDQKLHARFWRPVMRNGFIRFDRPEDCPVRKFVRSMSVKPFGFGQNLQSADEAAAELEGLAEGHHHHHH | soluble
MVKVVVDASNVAYSTKNENSQPQMSNILAAVKSLEESGDEFVIIADASLRHDIDDKEKFEKLLESENVEEVPAGNDADHFILNIAHNEKAKILSNDKFRDYAAEFKNINSMRIPFVIENGRVTFGKPKSPKKDKNILQHISDEIIKELNFKRWEVYTGKEGLEISPLNIAKQAIIRIDNDNDTSSKLEKVFSKIPMFNKIVDMVDDVEVAAPYVIFVLVHPKDYKLAVKNAGNISVTVADRLRLEKKPLIAVRNDLFTRPGTFELNIMLADEVTEHAPYNVLVRVSTHDEVFIKKNSRNIASTIAGRLGSWKFPFVSVKPDMLLEKPGDFEIELEKGGSLDGLEHHHHHH | soluble
MNFDEIDKTFGTKNRDQGYDLLKARLDKGDRSVEVLWRLAQVIHEKSACVPKAQRKASVTEGLKFAEEAVQKDPNHFKALKWNAVLTGQATEYMATKEKLECSKKFKELLDKTLAKEPKDTAVLHLRGRYKYSVASLTWLEKKLAATFYQQPPSHSYEEANEDFLAAYKVNPKWMENTFYVSKCYVAIKDKANARKYLTEVCDIEPYSDAEQEFADDAKQMLSKL | soluble
MPVNNENLTSVLDARPFELSEEQKSPLFKANLLAELVHHYQCNEMYRKFCQKNKFDPLVFDGEVADIPPIPVHIFKAIGHKLSSVSDDTIKAKLQSSATSGVPSTILLDKVTARRQTRAMARVMQEVLGPKRRPFCIMDIDPTSPNATNLGARIAAVKGYLNFASTSKYFIDADSPSAPLEFLEQKFVEHLNSLASEEPLIIFGFTFVLYHTVFKTLKDKGISFQLPKGSQVIHIGGWKKLESEKVDKITFNRDIASVLGISPDDVVDIYGFTEQMGLNYPDCKAGWKHIHAYSDVIIRDESNLEVCGPGKVGLLEFVSPLPHSYPGNVVLTDDLGVIEESLCECGKAGKRFKVIGRAKKAEVRGCGDVMSEKLTKKPSYKPLSQQEERLTIYHSPIFLEHHHHHH | not soluble
MGSDKIHHHHHHMRKDKNGTQEPKAKYRVRNWAAYNAGLINRGNITMWIGDDALANMPDTEPTRGRSRLYSDALIQALLGLKTVFHLPLRALQGFAQSLRDLAFAELPVPNYTTVCRRAQALQVKLPVIHSDEPLHLVVDSTGAKVCGEGEWKVRQHGYSKRRTWRKVHLALDANTGQLRAALMTHQDVADGEVLPELLEQISADESIDTIGGDGAYDTQACYASITARGALPSIPPREGAVHWPTTTPGASRRNAALDAIAQGSRREWKQQSGYHRRSLAENAMYRLKTLTGPCLWARRTDTQATEVAVRVGVLNRMAELSRPQSVRIARDHEQRHHFVLTPDLCNNVHSSAERRQGRVSCAMHATI | not soluble
MKVLILRPAELLSETIRRFREEGFDAYGCPFIKLIYTDFDVPEHDFAIVTSQNAARVLRERGVRLKRVIAIGKKTAELIEAEEVLLPSKFDSETLYEEFAEMLRGKRVVAFRSNAGSEAVKRLSEVADFREIQVYRIEKLQGEEQRREVEKVREGFYDAIVFSSSMIARSLLELCDEKCLEALKNIFVVAIGPPTAKVLAEKGIRAEIPEEYTFDGVIELLKSKKMLEHHHHHH | soluble
MSLNARARALRHSRSGTIGLIVPDVNNAVFADMFSGVQMAASGHSTDVLLGQIDAPPRGTQQLSRLVSEGRVDGVLLQRREDFDDDMLAAVLEGVPAVTINSRVPGRVGSVILDDQKGGGIATEHLITLGHSRIAFISGTAIHDTAQRRKEGYLETLASAGLRSEAAWVVDAGWEADAGSAALNTLYRGANLGKPDGPTAVVVASVNAAVGALSTALRLGLRVPEDLSIVGINTTWVSDTVYPALTTVRLPLQRLGEVAADVLMEHLGGRALTDTVVTQPTPELLVRETTAPPTREGHHHHHH | soluble
AQVDLLNVKGEKVGTLEISDFVFNIDPNYDVMWRYVDMQLSNRRAGTASTKTRGEVSGGGRKPWPQKHTGRARHGSIRSPIWRHGGVVHGPKPRDWSKKLNKKMKKLALRSALSVKYRENKLLVLDDLKLERPKTKSLKEILQNLQLSDKKTLIVLPWKEEGYMNVKLSGRNLPDVKVIIADNPNNSKNGEKAVRIDGLNVFDMLKYDYLVLTRDMVSKIEEVLG | soluble
MNYSLRQLRIFITVAQAKSFSRAGDRIGLSQSAVSHSVKELERQTGVRLLDRTTREVVLTEAGQQLATRLERVLDELNSILRDAGRVGTQLTGTVRVAASQTISAHLIPQCIAQSNSLYPAIDFVLHDRPQQWVLESIRQGEVDFGIVIDPGAAVDLQCEAILSEPFLLLCRQDHPLAHQEWVSWQDLKQASLVLQDYASGSRPLIDAALAHFAIEADIVQEIGHPATLFPMVEAGIGISVLPALALPLPQGSHLQVKRLTPVVERQLMLARRKNRSLSTAAQALWDVVRTQASELTAARAKDPLYQL | not soluble
MPKIISKRKFNILRKTKEEIFSQIVYTKKRNGLHKAAKEYYFKDKDFTIIEDQQDRPDKPEELDTPDIPKPPKPPKGPDQPEEPGQPGGPDDPNSGNKKMPKPDEFVTHRQLQEFKKDLLVELHEIFPTKPELKRVEEKVDVLFELQKAQGEQIRIQGEQIKELKVEQKAQGETLQLILQTLQKMNDRLDKIEGKMDKMESRMDKMETRLDKLESKLEHHHHHH | not soluble
AATSRTERIWPGGVIPYVIGGNFTGSQRAMFKQAMRHWEKHTCVTFIERSDEESYIVFTYRPCGCCSYVGRRGNGPQAISIGKNCDKFGIVVHELGHVIGFWHEHTRPDRDNHVTIIRENIQPGQEYNFLKMEPGEVNSLGERYDFDSIMHYARNTFSRGMFLDTILPSRDDNGIRPAIGQRTRLSKGDIAQARKLYRCPA | soluble
MSLTLYKPNETDFTHNGIGALDKNIYNATVEEELNGLFLFSFSYPLFAPHGLEIEGMSIIKVPTPDGEQLFRVAAPKASMGEVTAQCYHIFYDLTENLIEDIFAETTNGNGAMNRMSAGCQYKHPFQFYSDVPKIASARIVRKNPVEALLDSSQDNSFVNRWGGELKRDNFDVKMLQNRGMDRGVVIRHKKDLLGYEGNVDWKSPITRIMPQGFDGLFLPEKYVDSPLINKYPHPKIKVVEFKHIKAAIGENADDEDAVPLEEAYRLLRQAAKGMFTIQKADQPKATYNVKFQELSQTEEYKDYKHLQSVYMADTVTVEHQEDGIDIKAKVIAYKYDPIKKEYLDVTIGNFKESFTDVSGRVDLVQEELSNMPSSILDAAKVNATSLINSGFGGHVRVYPNRILIMDTKDEKSAKKVWQWNLNGLGYSSTGVNGPYGTAITSDGRIVADFITAGTLSGNFVRGGEITGSTEGHHHHHH | soluble
MSLFKSQTAILPEAGPFALYTLLKVRQNHAHVLQALKALPALVEEINQNQPGAELTVSVAFSKGFWSHFEMASPPELIDFPELGEGETHAPSTDVDVLIHCHATRHDLLFYTLRKGISDIAQDIEIVDETYGFRYLDARDMTGFIDGTENPKAEKRAEVALVADGDFAGGSYVMVQRFVHNLPAWNRLNLAAQEKVIGRTKPDSVELENVPAASHVGRVDIKEEGKGLKIVRHSLPYGSVSGDHGLLFIAYCHTLHNFKTMLESMYGVTDGKTDQLLRFTKAVTGAYFFAPSQVMLQELTLKNQEGGSHHHHHH | soluble
MSLESRFCDICGKPAKTYQFGSLLCEDPECLKKAQKLRGGPAGHKLRVISVGSTNPVKVSAVEKAIEKTVGTMLVSSVDTKSGVSDQPQGFEETFKGAYNRAKGAFEKVNCVYGIGIEAGIVEIGEKKLDIHICVVYNGLDYSVGTSQAFQIPKDISDMINEGYECSKIAEETYRVKNIGQKNGIIGVLTDNNILREQLCIDSVVMAMIPKYRRNSQIREGHHHHHH | soluble
IQILSKSKLEKCEKTSDSGNLNCSTKIVLNLAVPSGSSGGEASIVAEIVEVEDNSSSNMQTVRIPPVITVNKSAAYALYDLTYIRDVPYKPQEYHVTTRKCEPDAGPDIVQICERLRDEKGNVLEQTQPICCPCGPQRRMPSSCGDIFDKMIKGKANTAHCLRFPGDWFHVFGIGQRSLGFSVRVELKTGTRVSEVIIGPENRTATANDNFLKVNLIGDFGGYTSIPSFEDFYLVIPREAAEAGQPGSLGANYSMWMLLERVRFTLDGLECNKIGVGYEAFNTQPNFCSSPYWSCLHNQLWNFRESDINRIDRHQLPLYGLEGRFERINQHPNAGPHSFSIGVTETLNTNLMIELRADDIEYVFQRSPGKIINIAIPTFEALTQFGVAAVIIKNTGEVEASYSLTFDCSKGVAFVEEQFFIIKPKAVTTRSFKLYPTKDQAAKYICTAILKDSQFSEVDRAECQFSTTATVLDNGTQVTNPFQIPETQPKGFFDSIRILWTKIINGLVDFITGDTCRNKCSSFFDFSCHIQYVCLS | not soluble
